Data on 125 sequences can be found in the supplement of paper PMC9112550, “Optimization of the antimicrobial peptide Bac7 by deep mutational scanning” (BMC Biology, 2022).

In the series the test system is Escherichia coli TOP10. The series can be described thus: shrunken log2 fold change of peptide-encoding DNA abundance (4.5 h post-induction vs induction); higher = less antimicrobial activity (less host growth inhibition). The note with it: time post-induction: 4.5 h; library: site-saturation at positions 5, 18, 19, 20.
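Note: peptides expressed intracellularly from a pBAD plasmid library in pooled LB shake-flask culture, induced with 0.3% L-arabinose, DNA abundance read by NGS, three biological replicates, DESeq2 with apeglm shrinkage.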

RRIRKRPPRLPRPRPRPKTKPRP: the “shrunken log2 fold change” value stood at 0.411.
As for RRIRARPPRLPRPRPRPVYLPRP, the “shrunken log2 fold change” value is -0.622.
The same measure for RRIRGRPPRLPRPRPRPHNSPRP: -0.0747; for RRIRGRPPRLPRPRPRPAMAPRP: 0.913; for RRIRWRPPRLPRPRPRPVFRPRP: -0.153.
Next, RRIRNRPPRLPRPRPRPPMAPRP: 0.361.
For RRIRVRPPRLPRPRPRPKFGPRP, the “shrunken log2 fold change” value is 0.017.
Next, RRIRIRPPRLPRPRPRPEWTPRP: -0.0261; RRIRFRPPRLPRPRPRPVATPRP: 0.547; RRIRFRPPRLPRPRPRPRESPRP: 0.45.
Next, RRIRARPPRLPRPRPRPQHSPRP: 0.283; RRIRDRPPRLPRPRPRPPLCPRP: 0.223; RRIRSRPPRLPRPRPRPERSPRP: 0.206.
Regarding RRIRSRPPRLPRPRPRPKNTPRP, the “shrunken log2 fold change” value was -0.356.
On to RRIRDRPPRLPRPRPRPSCPPRP, for which the “shrunken log2 fold change” value is 0.00741.
On to RRIRWRPPRLPRPRPRPAFQPRP, for which the “shrunken log2 fold change” value amounted to 0.62.
Turning to RRIRPRPPRLPRPRPRPKIIPRP, the “shrunken log2 fold change” value is -0.0308.
For RRIRKRPPRLPRPRPRPMIFPRP, the “shrunken log2 fold change” value was -0.132.
Take RRIRGRPPRLPRPRPRPGHYPRP: the “shrunken log2 fold change” value stood at 0.00558.
As for RRIRPRPPRLPRPRPRPAPHPRP, the “shrunken log2 fold change” value was found to be 0.402.
On to RRIRLRPPRLPRPRPRPRCCPRP, for which the “shrunken log2 fold change” value was found to be 0.0851.
Turning to RRIRVRPPRLPRPRPRPITGPRP, the “shrunken log2 fold change” value was -0.00538.
Next, RRIRDRPPRLPRPRPRPSGGPRP: 0.356.
In the case of RRIRPRPPRLPRPRPRPWTEPRP, the “shrunken log2 fold change” value is -0.204.
Regarding RRIRERPPRLPRPRPRPCNLPRP, the “shrunken log2 fold change” value was -0.904.
The same measure for RRIRSRPPRLPRPRPRPKAWPRP: 0.148; for RRIRHRPPRLPRPRPRPMQHPRP: 0.0685.
As for RRIRWRPPRLPRPRPRPYKSPRP, the “shrunken log2 fold change” value was -0.144.
The same measure for RRIRSRPPRLPRPRPRPPGPPRP: 0.64.
Next, RRIRGRPPRLPRPRPRPCACPRP: 0.225; RRIRQRPPRLPRPRPRPDEYPRP: 0.0131.
With RRIRMRPPRLPRPRPRPWSCPRP, the “shrunken log2 fold change” value is -0.0965.
In the case of RRIRVRPPRLPRPRPRPLDCPRP, the “shrunken log2 fold change” value was -0.0035.
The same measure for RRIRYRPPRLPRPRPRPMARPRP: -0.0425; for RRIRRRPPRLPRPRPRPCALPRP: -0.22.
With RRIRIRPPRLPRPRPRPGNHPRP, the “shrunken log2 fold change” value is -0.227.
Turning to RRIRVRPPRLPRPRPRPMPFPRP, the “shrunken log2 fold change” value is -0.259.
As to RRIRSRPPRLPRPRPRPALVPRP, the “shrunken log2 fold change” value turned out to be 0.398.
In the case of RRIRMRPPRLPRPRPRPSGFPRP, the “shrunken log2 fold change” value was determined as 0.411.
The same measure for RRIRTRPPRLPRPRPRPVREPRP: 0.139; for RRIRSRPPRLPRPRPRPSFYPRP: -0.684.
Turning to RRIRYRPPRLPRPRPRPYNSPRP, the “shrunken log2 fold change” value is -0.102.
Consider RRIRDRPPRLPRPRPRPFEPPRP, for which the “shrunken log2 fold change” value was -0.057.
For the sequence RRIRQRPPRLPRPRPRPNWKPRP, the “shrunken log2 fold change” value was 0.135.
With RRIRERPPRLPRPRPRPWMRPRP, the “shrunken log2 fold change” value came to 0.079.
For the sequence RRIRTRPPRLPRPRPRPWNLPRP, the “shrunken log2 fold change” value was -0.031.
Take RRIRQRPPRLPRPRPRPKTIPRP: the “shrunken log2 fold change” value is -0.184.
For RRIRPRPPRLPRPRPRPVYWPRP, the “shrunken log2 fold change” value was -0.139.
As to RRIRTRPPRLPRPRPRPVINPRP, the “shrunken log2 fold change” value was -0.189.
For RRIRVRPPRLPRPRPRPPECPRP, the “shrunken log2 fold change” value is -0.186.
Take RRIRKRPPRLPRPRPRPLNEPRP: the “shrunken log2 fold change” value came out at 0.0114.
With RRIRNRPPRLPRPRPRPDIVPRP, the “shrunken log2 fold change” value is -0.0101.
Turning to RRIRVRPPRLPRPRPRPMQFPRP, the “shrunken log2 fold change” value was found to be 0.0422.
For the sequence RRIRYRPPRLPRPRPRPQSMPRP, the “shrunken log2 fold change” value is -0.451.
RRIRRRPPRLPRPRPRPIDDPRP: the “shrunken log2 fold change” value was -0.128.
With RRIRCRPPRLPRPRPRPPAEPRP, the “shrunken log2 fold change” value was 1.18.
Take RRIRARPPRLPRPRPRPWPAPRP: the “shrunken log2 fold change” value is 0.17.
RRIRFRPPRLPRPRPRPMVNPRP: the “shrunken log2 fold change” value is -0.171.
Turning to RRIRARPPRLPRPRPRPQLHPRP, the “shrunken log2 fold change” value is 0.054.
Turning to RRIRQRPPRLPRPRPRPSSNPRP, the “shrunken log2 fold change” value is -0.222.
Consider RRIRPRPPRLPRPRPRPVCLPRP, for which the “shrunken log2 fold change” value stood at 0.081.
In the case of RRIRMRPPRLPRPRPRPNREPRP, the “shrunken log2 fold change” value is 0.0182.
With RRIRRRPPRLPRPRPRPIFHPRP, the “shrunken log2 fold change” value was found to be 0.129.
In the case of RRIRIRPPRLPRPRPRPNRWPRP, the “shrunken log2 fold change” value is -0.0394.
In the case of RRIRTRPPRLPRPRPRPHWSPRP, the “shrunken log2 fold change” value was -0.147.
Next, RRIRYRPPRLPRPRPRPVAVPRP: 3.17.
RRIRLRPPRLPRPRPRPNDDPRP: the “shrunken log2 fold change” value is -0.248.
With RRIRIRPPRLPRPRPRPYQKPRP, the “shrunken log2 fold change” value is -0.243.
Turning to RRIRYRPPRLPRPRPRPLRWPRP, the “shrunken log2 fold change” value came out at 0.184.
RRIRCRPPRLPRPRPRPELFPRP: the “shrunken log2 fold change” value worked out at 0.676.
In the case of RRIRGRPPRLPRPRPRPRWHPRP, the “shrunken log2 fold change” value came out at 0.522.
With RRIRPRPPRLPRPRPRPSATPRP, the “shrunken log2 fold change” value amounted to 0.195.
On to RRIRHRPPRLPRPRPRPESIPRP, for which the “shrunken log2 fold change” value is -0.107.
Next, RRIRARPPRLPRPRPRPGGEPRP: 0.694; RRIRNRPPRLPRPRPRPFVGPRP: -0.182.
Turning to RRIRRRPPRLPRPRPRPEYHPRP, the “shrunken log2 fold change” value was 0.311.
Turning to RRIRTRPPRLPRPRPRPDQGPRP, the “shrunken log2 fold change” value came to 0.23.
For the sequence RRIRERPPRLPRPRPRPCLLPRP, the “shrunken log2 fold change” value was -0.0977.
In the case of RRIRKRPPRLPRPRPRPPIIPRP, the “shrunken log2 fold change” value was -0.146.
On to RRIRIRPPRLPRPRPRPVEQPRP, for which the “shrunken log2 fold change” value is 0.107.
Consider RRIRPRPPRLPRPRPRPRCNPRP, for which the “shrunken log2 fold change” value is -0.0415.
For the sequence RRIRHRPPRLPRPRPRPSSEPRP, the “shrunken log2 fold change” value was -0.102.
As to RRIRARPPRLPRPRPRPNTCPRP, the “shrunken log2 fold change” value came to 0.136.
As for RRIRLRPPRLPRPRPRPVWEPRP, the “shrunken log2 fold change” value is 0.0556.
The same measure for RRIRERPPRLPRPRPRPVCLPRP: -0.0994; for RRIRTRPPRLPRPRPRPAYEPRP: 0.164.
Regarding RRIRTRPPRLPRPRPRPNYHPRP, the “shrunken log2 fold change” value was -1.14.
Next, RRIRMRPPRLPRPRPRPANLPRP: 0.013.
Consider RRIRIRPPRLPRPRPRPQQHPRP, for which the “shrunken log2 fold change” value was -0.551.
With RRIRERPPRLPRPRPRPFAVPRP, the “shrunken log2 fold change” value was -0.759.
Regarding RRIRWRPPRLPRPRPRPYFLPRP, the “shrunken log2 fold change” value was -0.757.
For the sequence RRIRCRPPRLPRPRPRPCSRPRP, the “shrunken log2 fold change” value is -0.0999.
Turning to RRIRGRPPRLPRPRPRPKILPRP, the “shrunken log2 fold change” value worked out at 0.229.
For the sequence RRIRNRPPRLPRPRPRPIMIPRP, the “shrunken log2 fold change” value was -0.363.
As to RRIRDRPPRLPRPRPRPREMPRP, the “shrunken log2 fold change” value turned out to be 0.00815.
As for RRIRMRPPRLPRPRPRPAGHPRP, the “shrunken log2 fold change” value worked out at 1.24.
Take RRIRIRPPRLPRPRPRPIKGPRP: the “shrunken log2 fold change” value is -0.068.
Regarding RRIRFRPPRLPRPRPRPSYIPRP, the “shrunken log2 fold change” value was -0.41.
As for RRIRFRPPRLPRPRPRPNHPPRP, the “shrunken log2 fold change” value was -0.84.
Turning to RRIRYRPPRLPRPRPRPGKEPRP, the “shrunken log2 fold change” value was determined as 0.0011.
With RRIRKRPPRLPRPRPRPIFRPRP, the “shrunken log2 fold change” value came to 0.132.
Next, RRIRFRPPRLPRPRPRPMFNPRP: -0.797.
With RRIRPRPPRLPRPRPRPQRYPRP, the “shrunken log2 fold change” value is -0.0398.
For RRIRSRPPRLPRPRPRPYPLPRP, the “shrunken log2 fold change” value was -0.105.
As to RRIRRRPPRLPRPRPRPRQDPRP, the “shrunken log2 fold change” value was 0.274.
In the case of RRIRRRPPRLPRPRPRPYSQPRP, the “shrunken log2 fold change” value was -0.032.
Next, RRIRNRPPRLPRPRPRPVVPPRP: 0.0751; RRIRVRPPRLPRPRPRPTNWPRP: 0.202.
Regarding RRIRNRPPRLPRPRPRPGWRPRP, the “shrunken log2 fold change” value is 0.564.
As for RRIRGRPPRLPRPRPRPNRRPRP, the “shrunken log2 fold change” value worked out at 0.332.
Consider RRIRERPPRLPRPRPRPKNLPRP, for which the “shrunken log2 fold change” value is 0.072.
Take RRIRYRPPRLPRPRPRPGARPRP: the “shrunken log2 fold change” value was -0.00825.
Regarding RRIRGRPPRLPRPRPRPHSNPRP, the “shrunken log2 fold change” value was 0.117.
On to RRIRDRPPRLPRPRPRPPVNPRP, for which the “shrunken log2 fold change” value is 0.519.
Next, RRIRCRPPRLPRPRPRPEQFPRP: 0.0372.
For the sequence RRIRERPPRLPRPRPRPRQFPRP, the “shrunken log2 fold change” value is -0.174.
With RRIRDRPPRLPRPRPRPFTFPRP, the “shrunken log2 fold change” value is -0.167.
On to RRIRLRPPRLPRPRPRPAHPPRP, for which the “shrunken log2 fold change” value came to 0.522.
As for RRIRARPPRLPRPRPRPDNSPRP, the “shrunken log2 fold change” value is -0.269.
On to RRIRQRPPRLPRPRPRPYLQPRP, for which the “shrunken log2 fold change” value was found to be 0.000139.
The same measure for RRIRWRPPRLPRPRPRPYNIPRP: -0.243; for RRIRDRPPRLPRPRPRPCIFPRP: 0.168.
For RRIRDRPPRLPRPRPRPTAGPRP, the “shrunken log2 fold change” value came to 0.534.
With RRIRSRPPRLPRPRPRPQDSPRP, the “shrunken log2 fold change” value is -0.164.
Take RRIRIRPPRLPRPRPRPCVIPRP: the “shrunken log2 fold change” value is -0.0683.
